Data set [1] deals with the molecule itself. In words: analytical ultracentrifugation of the individually expressed protein (monomer plus higher aggregates seen). As to the method: To check the oligomeric status of the purified designed enzymes, their size profiles was measured by analytical ultracentrifugation (FIG. 6). In the case of individually-expressed A1, A2, B3 and B4 proteins, the appearance of the expected monomeric enzyme was observed. However, higher molecular weight aggregates were also detected, including trimers and tetramers (FIG. 6B; only KTG-A2 and QAN-B3 are shown, although similar results were obtained with the other designs). Therefore the designed enzymes were indeed unable to homodimerise, and this may have affected their stability and aggregation properties during purification.

A further data set addresses T1, M3 E8K K96E.
T1 chain: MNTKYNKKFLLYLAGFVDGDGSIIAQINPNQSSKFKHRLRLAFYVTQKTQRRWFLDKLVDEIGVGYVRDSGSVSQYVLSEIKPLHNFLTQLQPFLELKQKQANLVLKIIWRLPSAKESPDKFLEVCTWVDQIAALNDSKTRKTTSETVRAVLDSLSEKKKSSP

Data set [2] concerns the target T2, R51D RAG1.10.3 cutter (M3 R51D).
T2 chain: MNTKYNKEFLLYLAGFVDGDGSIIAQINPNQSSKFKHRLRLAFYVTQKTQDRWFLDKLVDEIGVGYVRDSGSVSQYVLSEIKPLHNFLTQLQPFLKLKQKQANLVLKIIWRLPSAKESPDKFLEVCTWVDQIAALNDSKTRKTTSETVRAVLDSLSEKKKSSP

Another data set addresses T3, M3 K7E K96E.
T3 chain: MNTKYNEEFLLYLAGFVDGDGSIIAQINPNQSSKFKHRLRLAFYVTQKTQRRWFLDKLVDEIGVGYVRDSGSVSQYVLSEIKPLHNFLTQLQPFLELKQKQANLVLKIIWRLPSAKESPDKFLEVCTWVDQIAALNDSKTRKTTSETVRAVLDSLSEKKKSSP

For another data set, the target named is T4, M3 K7E E61R.
T4 chain: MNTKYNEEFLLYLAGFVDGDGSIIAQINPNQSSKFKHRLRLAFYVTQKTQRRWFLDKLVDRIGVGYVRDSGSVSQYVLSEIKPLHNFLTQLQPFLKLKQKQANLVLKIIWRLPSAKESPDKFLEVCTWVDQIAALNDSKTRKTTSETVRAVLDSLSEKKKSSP

In the next data set the target is T5, M3 E8K E61R.
T5 chain: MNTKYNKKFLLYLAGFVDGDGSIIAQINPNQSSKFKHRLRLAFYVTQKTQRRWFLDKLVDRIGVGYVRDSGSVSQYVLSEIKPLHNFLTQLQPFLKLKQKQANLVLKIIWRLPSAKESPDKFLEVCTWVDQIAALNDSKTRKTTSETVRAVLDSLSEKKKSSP

The target in data set [3] is T6, D137R RAG1.10.3 cutter (M3 D137R).
T6 chain: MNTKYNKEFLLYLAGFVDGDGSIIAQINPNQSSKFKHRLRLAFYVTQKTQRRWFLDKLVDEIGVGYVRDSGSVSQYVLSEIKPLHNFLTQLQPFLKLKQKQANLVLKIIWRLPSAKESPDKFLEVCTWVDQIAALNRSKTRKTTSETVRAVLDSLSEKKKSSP

The target in data set [4] is T7, QAN-B3 (QAN with K7E, F54G, L58M, K96E), His tag removed, co-expressed from pCDFDuet1.
T7 chain: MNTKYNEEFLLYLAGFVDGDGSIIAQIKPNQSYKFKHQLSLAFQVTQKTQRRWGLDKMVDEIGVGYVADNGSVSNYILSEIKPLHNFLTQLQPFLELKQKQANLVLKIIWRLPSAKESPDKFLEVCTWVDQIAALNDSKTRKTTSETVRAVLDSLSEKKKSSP

Data set [5] deals with T8, KTG-B3 (KTG with the B3 interface: K7E, F54G, L58M, K96E).
T8 chain: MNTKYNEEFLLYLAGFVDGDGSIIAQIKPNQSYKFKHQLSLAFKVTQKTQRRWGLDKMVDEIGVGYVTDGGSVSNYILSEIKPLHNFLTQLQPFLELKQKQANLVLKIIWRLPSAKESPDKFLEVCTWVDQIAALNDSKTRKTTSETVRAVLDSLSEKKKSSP

B1: D137R RAG1.10.3 cutter (M3 D137R) (protein)
chain: MNTKYNKEFLLYLAGFVDGDGSIIAQINPNQSSKFKHRLRLAFYVTQKTQRRWFLDKLVDEIGVGYVRDSGSVSQYVLSEIKPLHNFLTQLQPFLKLKQKQANLVLKIIWRLPSAKESPDKFLEVCTWVDQIAALNRSKTRKTTSETVRAVLDSLSEKKKSSP
With B1, the “cleavage of the palindromic RAG1.10.3 target, direct repeat recombination (LacZ) assay in yeast” value was “no cleavage of the RAG1.10.2 and RAG1.10.3 targets was visible”.

B2: QAN-B4 (QAN with the B4 interface: B3 mutations K7E, F54G, L58M, K96E plus Glycine at position 97) (enzyme)
chain: MANTKYNEEFLLYLAGFVDGDGSIIAQIKPNQSYKFKHQLSLTFQVTQKTQRRWGLDKMVDEIGVGYVADNGSVSNYILSEIKPLHNFLTQLQPFLEGKQKQANLVLKIIEQLPSAKESPDKFLEVCTWVDQIAALNDSKTRKTTSETVRAVLDSLSEKKKSSPAAALEHHHHHH
notes: Purified by His tag when expressed alone
Take B2: the binding result in data set [1] is on record as “no binding”.

B3: M2 K7E E61R (protein)
chain: MNTKYNEEFLLYLAGFVDGDGSIIAQIKPRQSNKFKHQLSLAFAVTQKTQRRWFLDKLVDRIGVGYVYDSGSVSDYRLSEIKPLHNFLTQLQPFLKLKQKQANLVLKIIWRLPSAKESPDKFLEVCTWVDQIAALNDSKTRKTTSETVRAVLDSLSEKKKSSP
Consider B3, for which, in the data set with M3 E8K K96E, the “cleavage of the RAG1.10 target, yeast screening assay (OH1)” value is given as “They have a strong cleavage activity toward the RAG1.10 target equivalent to the M2/M3 heterodimer activity, while they display almost non detectable homodimeric activities”.

B4: D137R RAG1.10.2 cutter (M2 D137R) (protein)
chain: MNTKYNKEFLLYLAGFVDGDGSIIAQIKPRQSNKFKHQLSLAFAVTQKTQRRWFLDKLVDEIGVGYVYDSGSVSDYRLSEIKPLHNFLTQLQPFLKLKQKQANLVLKIIWRLPSAKESPDKFLEVCTWVDQIAALNRSKTRKTTSETVRAVLDSLSEKKKSSP
B4: the “cleavage of the RAG1.10 target, direct repeat recombination (LacZ) assay in yeast” value in data set [2] is reported as “leads also to the formation of an obligatory heterodimer, which is yet less active than the precedent one on the RAG1.10 target”.

B5: M2 E8K E61R (protein)
chain: MNTKYNKKFLLYLAGFVDGDGSIIAQIKPRQSNKFKHQLSLAFAVTQKTQRRWFLDKLVDRIGVGYVYDSGSVSDYRLSEIKPLHNFLTQLQPFLKLKQKQANLVLKIIWRLPSAKESPDKFLEVCTWVDQIAALNDSKTRKTTSETVRAVLDSLSEKKKSSP
Take B5: the “cleavage of the RAG1.10 target, yeast screening assay (OH2)” value in the data set with M3 K7E K96E is on record as “They have a strong cleavage activity toward the RAG1.10 target equivalent to the M2/M3 heterodimer activity, while they display almost non detectable homodimeric activities”.

B6: M2 E8K K96E (protein)
chain: MNTKYNKKFLLYLAGFVDGDGSIIAQIKPRQSNKFKHQLSLAFAVTQKTQRRWFLDKLVDEIGVGYVYDSGSVSDYRLSEIKPLHNFLTQLQPFLELKQKQANLVLKIIWRLPSAKESPDKFLEVCTWVDQIAALNDSKTRKTTSETVRAVLDSLSEKKKSSP
B6: the “cleavage of the RAG1.10 target, yeast screening assay (OH4)” value with M3 K7E E61R is “They have a strong cleavage activity toward the RAG1.10 target equivalent to the M2/M3 heterodimer activity, while they display almost non detectable homodimeric activities”.

B7: M2 K7E K96E (protein)
chain: MNTKYNEEFLLYLAGFVDGDGSIIAQIKPRQSNKFKHQLSLAFAVTQKTQRRWFLDKLVDEIGVGYVYDSGSVSDYRLSEIKPLHNFLTQLQPFLELKQKQANLVLKIIWRLPSAKESPDKFLEVCTWVDQIAALNDSKTRKTTSETVRAVLDSLSEKKKSSP
For the protein B7, in the data set with M3 E8K E61R, the “cleavage of the RAG1.10 target, yeast screening assay (OH3)” value is listed as “They have a strong cleavage activity toward the RAG1.10 target equivalent to the M2/M3 heterodimer activity, while they display almost non detectable homodimeric activities”.

B8: R51D RAG1.10.2 cutter (M2 R51D) (protein)
chain: MNTKYNKEFLLYLAGFVDGDGSIIAQIKPRQSNKFKHQLSLAFAVTQKTQDRWFLDKLVDEIGVGYVYDSGSVSDYRLSEIKPLHNFLTQLQPFLKLKQKQANLVLKIIWRLPSAKESPDKFLEVCTWVDQIAALNDSKTRKTTSETVRAVLDSLSEKKKSSP
In the case of B8, the “cleavage of the palindromic RAG1.10.2 target, direct repeat recombination (LacZ) assay in yeast” value was “no cleavage of the RAG1.10.2 and RAG1.10.3 targets was visible”. Further, in [3], the “cleavage of the RAG1.10 target, direct repeat recombination (LacZ) assay in yeast” value is “resulted in an efficient cleavage of the RAG1.10 target while no cleavage of the RAG1.10.2 and RAG1.10.3 targets was visible”.

B9: KTG-A2 (KTG with K7R, E8R, F54W, E61R, K96R, L97F) (enzyme)
chain: MNTKYNRRFLLYLAGFVDGDGSIIAQIKPNQSYKFKHQLSLAFKVTQKTQRRWWLDKLVDRIGVGYVTDGGSVSNYILSEIKPLHNFLTQLQPFLRFKQKQANLVLKIIWRLPSAKESPDKFLEVCTWVDQIAALNDSKTRKTTSETVRAVLDSLSEKKKSSP
notes: Designed monomer; Expressed with a His tag from pET-series plasmid pCLS1211
Regarding B9, in data set [4], the “in vitro cleavage of linearized plasmid DNA targets (agarose gel)” value was “clear specific cleavage of the heterodimer DNA target (gtt/agg) and barely of the homodimeric targets (cct/agg and gtt/aac; FIG. 7A) was observed”. Also, in data set [1], the binding result was “no binding”.

B10: QAN-A1 (QAN with the A1 interface: K7R, E8R, E61R, K96R, L97F; Phe kept at position 54) (enzyme)
chain: MNTKYNRRFLLYLAGFVDGDGSIIAQIKPNQSYKFKHQLSLAFQVTQKTQRRWFLDKLVDRIGVGYVADNGSVSNYILSEIKPLHNFLTQLQPFLRFKQKQANLVLKIIWRLPSAKESPDKFLEVCTWVDQIAALNDSKTRKTTSETVRAVLDSLSEKKKSSP
notes: as for B2
Turning to B10, the “in vitro cleavage of linearized plasmid DNA targets (agarose gel)” value in data set [5] is recorded as “specific cleavage of the heterodimer, but at reduced level compared to the KTG-A2/QAN-B3 combination”. Moreover, in data set [1], the binding result was “no binding”.

B11: QAN-B3 (QAN with K7E, F54G, L58M, K96E), individually expressed and purified (enzyme)
chain: MNTKYNEEFLLYLAGFVDGDGSIIAQIKPNQSYKFKHQLSLAFQVTQKTQRRWGLDKMVDEIGVGYVADNGSVSNYILSEIKPLHNFLTQLQPFLELKQKQANLVLKIIWRLPSAKESPDKFLEVCTWVDQIAALNDSKTRKTTSETVRAVLDSLSEKKKSSP
notes: Designed monomer; His-tagged form from pET-series plasmid pCLS1214, purified on a nickel column
On to B11, for which, in data set [1], the binding result is given as “no binding”.

B12: KTG-B3 (KTG with the B3 interface: K7E, F54G, L58M, K96E) (enzyme)
chain: MNTKYNEEFLLYLAGFVDGDGSIIAQIKPNQSYKFKHQLSLAFKVTQKTQRRWGLDKMVDEIGVGYVTDGGSVSNYILSEIKPLHNFLTQLQPFLELKQKQANLVLKIIWRLPSAKESPDKFLEVCTWVDQIAALNDSKTRKTTSETVRAVLDSLSEKKKSSP
notes: as for B2
For the protein B12, the binding result in data set [1] is reported as “no binding”.

(Values after US20100167357A1 (CELLECTIS, published 2010).)
